Test results: article PMC6215006

Molecular target: recombinant human macrophage-colony stimulating factor (human) (UniProt P09603)
UniProt P09603, sequence (P09603 36-181): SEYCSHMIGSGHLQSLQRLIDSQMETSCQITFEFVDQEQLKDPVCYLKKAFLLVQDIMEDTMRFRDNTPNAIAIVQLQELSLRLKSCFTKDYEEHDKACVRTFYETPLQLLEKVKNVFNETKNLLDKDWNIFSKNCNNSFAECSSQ

Row | inhibition of the differentiation of bone marrow-derived osteoclast precursors into osteoclasts with M-CSF (30 ng/mL) and RANKL (100 ng/mL), TRAP(+) MNCs; maximum inhibitory dose | Substance
1 | 1 nM | mouse syndecan-1 ectodomain from HEK293E cells (from UniProt P18828 23-255) (domain or fragment)
2 | 1 nM | mouse syndecan-2 ectodomain from HEK293E cells (from UniProt P43407 19-145) (domain or fragment)
3 | 1 nM | mouse syndecan-3 ectodomain from HEK293E cells (from UniProt Q64519 45-387) (domain or fragment)
4 | 1 nM | mouse syndecan-4 ectodomain from HEK293E cells (from UniProt O35988 24-145) (domain or fragment)
